Data from patent US20230167482A1, “FUNCTIONAL CYTOCHROME P450 IN VITRO ASSAY” (PharmGenetix GmbH, priority 2019, published 2023).

Test system: CYP2D6
Test: Functional CYP2D6 in vitro assay: HEK-Blue cells transiently transfected with a CYP2D6 variant, P450-Glo luminescence with Luciferin-ME EGE, normalized to secreted NanoLuc
Type: cell-based, human
Conditions: one-way ANOVA followed by Dunnett post hoc test, categories: loss, decrease, normal, increase of function
Method: Therefore the CYP2D6 coding sequence (CDS) of interest is cloned into pcDNA3.1-HISC vector, and variants of interest are produced via site-directed mutagenesis (FIG. 1; step 1).
pcDNA3.1-HISC (A) and pNL1.3CMV[secNluc/CMV] (B) vectors are co-transfected in HEK-Blue™ cells (FIG. 1; step 2). 48 hours after transfection, secreted NanoLuc is detected and measured by luminescence using a multi-plate reader (FIG. 1; step 3). Following NanoLuc detection, old media is replaced with Luciferin ME-EGE containing media (FIG. 1; step 4). After 3 hours incubation at 37° C., cells are lysed and luciferin production (proportional to CYP2D6 activity) is measured using a multi-plate reader (FIG. 1; step 5).
CYP2D6 cDNA was obtained from total liver RNA (Ambion®, Life Technology, Wien, Austria), following Reverse-Transcription-PCR (RT-PCR) using the Quantitect® Reverse Transcription kit (Qiagen, Hilden, Germany) following manufacturer instructions. The CYP2D6 coding sequence (CDS) was then amplified using the following oligonucleotide primers: 5′-[…]-3′ (forward primer) and 5′-[…]-3′ (reverse primer). The CYP2D6 CDS was then cloned into the pcDNA3.1-HISC eukaryotic protein expression vector under the control of the CMV immediate enhancer and promoter, using the NheI and KpnI restriction digestion enzymes (Thermo Scientific, Waltham, Mass., USA). […] All the other tested CYP2D6 variants were similarly created. After production, vectors and cloned inserts were verified with Sanger sequencing against the wild-type reference sequence (SEQ ID No: 2).
Cell culture and transfection Human Embryonic Kidney (HEK)-Blue (HEK-Blue™ IL-4/IL-13 cells, Invivogen, Toulouse, France) cells, an engineered cell line derived from HEK-293 cells, were cultured in a humidified incubator at 37° C. with 5% CO2 with Dulbecco's Modified Eagles Medium (DMEM) supplemented with 4.5 g/L glucose, 10% (v/v) Fetal Bovine Serum (FBS), 1.5% NaHCO3, 50 U/mL penicillin, 50 μg/mL streptomycin, 10 μg/mL Blasticidin and 100 μg/mL Zeocin™ (Invivogen, Toulouse, France). Media was replaced three times weekly. […]
Forty-eight hours following transfection, a 20 μL aliquot of the supernatant was transferred from each well into a new white 96-well Nunclon™ A Surface plate for the detection of the secreted NanoLuc® levels using the Nano-Glo® Luciferase assay (Promega, Mannheim, Germany). […] Following three minutes incubation at room temperature (RT), luminescence was measured using the Spark® 10M multimode multiplate reader (Tecan, Grodig, Austria), keeping an optical density filter of 1 (OD1) and 1 second of integration time. Luminescence levels directly correspond to the amount of secreted NanoLuc®, which is used for normalization of transfection efficiency. […]

Row | Molecule | function category of the variant versus *1 and *3 controls
1 | *10: human CYP2D6 variant allele *10 (PV00435), SEQ ID NO: 6 (protein, UniProt P10635 1-497, looked up, variant P34S S486T) Cytochrome P450 2D6: MGLEALVPLAVIVAIFLLLVDLMHRRQRWAARYSPGPLPLPGLGNLLHVDFQNTPYCFDQLRRRFGDVFSLQLAWTPVVVLNGLAAVREALVTHGEDTADRPPVPITQILGFGPRSQGVFLARYGPAWREQRRFSVSTLRNLGLGKKSLEQWVTEEAACLCAAFANHSGRPFRPNGLLDKAVSNVIASLTCGRRFEYDDPRFLRLLDLAQEGLKEESGFLREVLNAVPVLLHIPALAGKVLRFQKAFLTQLDELLTEHRMTWDPAQPPRDLTEAFLAEMEKAKGNPESSFNDENLRIVVADLFSAGMVTTSTTLAWGLLLMILHPDVQRRVQQEIDDVIGQVRRPEMGDQAHMPYTTAVIHEVQRFGDIVPLGVTHMTSRDIEVQGFRIPKGTTLITNLSSVLKDEAVWEKPFRFHPEHFLDAQGHFVKPEAFLPFSAGRRACLGEPLARMELFLFFTSLLQHFSFSVPTGQPRPSHHGVFAFLVTPSPYELCAVPR | decrease of function
2 | *14: human CYP2D6 variant allele *14 (PV00439), SEQ ID NO: 7 (protein, UniProt P10635 1-497, looked up, variant P34S G169R R296C S486T) Cytochrome P450 2D6: MGLEALVPLAVIVAIFLLLVDLMHRRQRWAARYSPGPLPLPGLGNLLHVDFQNTPYCFDQLRRRFGDVFSLQLAWTPVVVLNGLAAVREALVTHGEDTADRPPVPITQILGFGPRSQGVFLARYGPAWREQRRFSVSTLRNLGLGKKSLEQWVTEEAACLCAAFANHSRRPFRPNGLLDKAVSNVIASLTCGRRFEYDDPRFLRLLDLAQEGLKEESGFLREVLNAVPVLLHIPALAGKVLRFQKAFLTQLDELLTEHRMTWDPAQPPRDLTEAFLAEMEKAKGNPESSFNDENLCIVVADLFSAGMVTTSTTLAWGLLLMILHPDVQRRVQQEIDDVIGQVRRPEMGDQAHMPYTTAVIHEVQRFGDIVPLGVTHMTSRDIEVQGFRIPKGTTLITNLSSVLKDEAVWEKPFRFHPEHFLDAQGHFVKPEAFLPFSAGRRACLGEPLARMELFLFFTSLLQHFSFSVPTGQPRPSHHGVFAFLVTPSPYELCAVPR | decrease of function
3 | *29: human CYP2D6 variant allele *29 (PV00453), SEQ ID NO: 8 (protein, UniProt P10635 1-497, looked up, variant V136I R296C V338M S486T) Cytochrome P450 2D6: MGLEALVPLAVIVAIFLLLVDLMHRRQRWAARYPPGPLPLPGLGNLLHVDFQNTPYCFDQLRRRFGDVFSLQLAWTPVVVLNGLAAVREALVTHGEDTADRPPVPITQILGFGPRSQGVFLARYGPAWREQRRFSISTLRNLGLGKKSLEQWVTEEAACLCAAFANHSGRPFRPNGLLDKAVSNVIASLTCGRRFEYDDPRFLRLLDLAQEGLKEESGFLREVLNAVPVLLHIPALAGKVLRFQKAFLTQLDELLTEHRMTWDPAQPPRDLTEAFLAEMEKAKGNPESSFNDENLCIVVADLFSAGMVTTSTTLAWGLLLMILHPDVQRRVQQEIDDMIGQVRRPEMGDQAHMPYTTAVIHEVQRFGDIVPLGVTHMTSRDIEVQGFRIPKGTTLITNLSSVLKDEAVWEKPFRFHPEHFLDAQGHFVKPEAFLPFSAGRRACLGEPLARMELFLFFTSLLQHFSFSVPTGQPRPSHHGVFAFLVTPSPYELCAVPR | decrease of function
4 | *9: human CYP2D6 variant allele *9 (PV00434), SEQ ID NO: 5 (protein, UniProt P10635 1-497, looked up, variant K281*) Cytochrome P450 2D6: MGLEALVPLAVIVAIFLLLVDLMHRRQRWAARYPPGPLPLPGLGNLLHVDFQNTPYCFDQLRRRFGDVFSLQLAWTPVVVLNGLAAVREALVTHGEDTADRPPVPITQILGFGPRSQGVFLARYGPAWREQRRFSVSTLRNLGLGKKSLEQWVTEEAACLCAAFANHSGRPFRPNGLLDKAVSNVIASLTCGRRFEYDDPRFLRLLDLAQEGLKEESGFLREVLNAVPVLLHIPALAGKVLRFQKAFLTQLDELLTEHRMTWDPAQPPRDLTEAFLAEMEAKGNPESSFNDENLRIVVADLFSAGMVTTSTTLAWGLLLMILHPDVQRRVQQEIDDVIGQVRRPEMGDQAHMPYTTAVIHEVQRFGDIVPLGVTHMTSRDIEVQGFRIPKGTTLITNLSSVLKDEAVWEKPFRFHPEHFLDAQGHFVKPEAFLPFSAGRRACLGEPLARMELFLFFTSLLQHFSFSVPTGQPRPSHHGVFAFLVSPSPYELCAVPR | decrease of function
